For series [1], the target named is T1, scNep1 (Emg1) (Saccharomyces cerevisiae, UniProt Q06287 1-252). Kind of series: X-ray crystallography.
For series [2], the target named is T1, scNep1 (Emg1). The series can be described thus: 1:1 molar mix.

One molecule from publication PMC3064781 can be followed below.

As to GGGCUUCAACGCCC (structured_RNA) [14-base Nep1 RNA], the binding result in series [1] and in series [2] was “binds” each time.
